Laboratory results taken from patent US20200087373A1 (UNIVERSITY OF COPENHAGEN, published 2020).
Ends that are not written are not given here. * marks the point of attachment. C16 diacid = O=C(O)CCCCCCCCCCCCCCC(=O)*

B1: AT181 [hGIP(5-30)NH2[D21K]-C16diacid/21] (peptide)
peptide: TFISDYSIAMDKIHQQK(C16 diacid)FVNWLLAQK-NH2
modifications: N-terminus assumed
SMILES: CC[C@H](C)[C@H](NC(=O)[C@H](CO)NC(=O)[C@H](Cc1ccc(O)cc1)NC(=O)[C@H](CC(=O)O)NC(=O)[C@H](CO)NC(=O)[C@@H](NC(=O)[C@H](Cc1ccccc1)NC(=O)[C@@H](N)[C@@H](C)O)[C@@H](C)CC)C(=O)N[C@@H](C)C(=O)N[C@@H](CCSC)C(=O)N[C@@H](CC(=O)O)C(=O)N[C@@H](CCCCN)C(=O)N[C@H](C(=O)N[C@@H](Cc1c[nH]cn1)C(=O)N[C@@H](CCC(N)=O)C(=O)N[C@@H](CCC(N)=O)C(=O)N[C@@H](CCCCNC(=O)CCCCCCCCCCCCCCC(=O)O)C(=O)N[C@@H](Cc1ccccc1)C(=O)N[C@H](C(=O)N[C@@H](CC(N)=O)C(=O)N[C@@H](Cc1c[nH]c2ccccc12)C(=O)N[C@@H](CC(C)C)C(=O)N[C@@H](CC(C)C)C(=O)N[C@@H](C)C(=O)N[C@@H](CCC(N)=O)C(=O)N[C@@H](CCCCN)C(N)=O)C(C)C)[C@@H](C)CC
B2: AT182 [hGIP(5-30)NH2[F22K]-C16diacid/22] (peptide)
peptide: TFISDYSIAMDKIHQQDK(C16 diacid)VNWLLAQK-NH2
modifications: N-terminus assumed
SMILES: CC[C@H](C)[C@H](NC(=O)[C@H](CO)NC(=O)[C@H](Cc1ccc(O)cc1)NC(=O)[C@H](CC(=O)O)NC(=O)[C@H](CO)NC(=O)[C@@H](NC(=O)[C@H](Cc1ccccc1)NC(=O)[C@@H](N)[C@@H](C)O)[C@@H](C)CC)C(=O)N[C@@H](C)C(=O)N[C@@H](CCSC)C(=O)N[C@@H](CC(=O)O)C(=O)N[C@@H](CCCCN)C(=O)N[C@H](C(=O)N[C@@H](Cc1c[nH]cn1)C(=O)N[C@@H](CCC(N)=O)C(=O)N[C@@H](CCC(N)=O)C(=O)N[C@@H](CC(=O)O)C(=O)N[C@@H](CCCCNC(=O)CCCCCCCCCCCCCCC(=O)O)C(=O)N[C@H](C(=O)N[C@@H](CC(N)=O)C(=O)N[C@@H](Cc1c[nH]c2ccccc12)C(=O)N[C@@H](CC(C)C)C(=O)N[C@@H](CC(C)C)C(=O)N[C@@H](C)C(=O)N[C@@H](CCC(N)=O)C(=O)N[C@@H](CCCCN)C(N)=O)C(C)C)[C@@H](C)CC
B3: AT183 [hGIP(5-30)NH2[V23K]-C16diacid/23] (peptide)
peptide: TFISDYSIAMDKIHQQDFK(C16 diacid)NWLLAQK-NH2
modifications: N-terminus assumed
SMILES: CC[C@H](C)[C@H](NC(=O)[C@H](CO)NC(=O)[C@H](Cc1ccc(O)cc1)NC(=O)[C@H](CC(=O)O)NC(=O)[C@H](CO)NC(=O)[C@@H](NC(=O)[C@H](Cc1ccccc1)NC(=O)[C@@H](N)[C@@H](C)O)[C@@H](C)CC)C(=O)N[C@@H](C)C(=O)N[C@@H](CCSC)C(=O)N[C@@H](CC(=O)O)C(=O)N[C@@H](CCCCN)C(=O)N[C@H](C(=O)N[C@@H](Cc1c[nH]cn1)C(=O)N[C@@H](CCC(N)=O)C(=O)N[C@@H](CCC(N)=O)C(=O)N[C@@H](CC(=O)O)C(=O)N[C@@H](Cc1ccccc1)C(=O)N[C@@H](CCCCNC(=O)CCCCCCCCCCCCCCC(=O)O)C(=O)N[C@@H](CC(N)=O)C(=O)N[C@@H](Cc1c[nH]c2ccccc12)C(=O)N[C@@H](CC(C)C)C(=O)N[C@@H](CC(C)C)C(=O)N[C@@H](C)C(=O)N[C@@H](CCC(N)=O)C(=O)N[C@@H](CCCCN)C(N)=O)[C@@H](C)CC
B4: AT184 [hGIP(5-30)NH2[N24K]-C16diacid/24] (peptide)
peptide: TFISDYSIAMDKIHQQDFVK(C16 diacid)WLLAQK-NH2
modifications: N-terminus assumed
SMILES: CC[C@H](C)[C@H](NC(=O)[C@H](CO)NC(=O)[C@H](Cc1ccc(O)cc1)NC(=O)[C@H](CC(=O)O)NC(=O)[C@H](CO)NC(=O)[C@@H](NC(=O)[C@H](Cc1ccccc1)NC(=O)[C@@H](N)[C@@H](C)O)[C@@H](C)CC)C(=O)N[C@@H](C)C(=O)N[C@@H](CCSC)C(=O)N[C@@H](CC(=O)O)C(=O)N[C@@H](CCCCN)C(=O)N[C@H](C(=O)N[C@@H](Cc1c[nH]cn1)C(=O)N[C@@H](CCC(N)=O)C(=O)N[C@@H](CCC(N)=O)C(=O)N[C@@H](CC(=O)O)C(=O)N[C@@H](Cc1ccccc1)C(=O)N[C@H](C(=O)N[C@@H](CCCCNC(=O)CCCCCCCCCCCCCCC(=O)O)C(=O)N[C@@H](Cc1c[nH]c2ccccc12)C(=O)N[C@@H](CC(C)C)C(=O)N[C@@H](CC(C)C)C(=O)N[C@@H](C)C(=O)N[C@@H](CCC(N)=O)C(=O)N[C@@H](CCCCN)C(N)=O)C(C)C)[C@@H](C)CC
B5: AT185 [hGIP(5-30)NH2[W25K]-C16diacid/25] (peptide)
peptide: TFISDYSIAMDKIHQQDFVNK(C16 diacid)LLAQK-NH2
modifications: N-terminus assumed
SMILES: CC[C@H](C)[C@H](NC(=O)[C@H](CO)NC(=O)[C@H](Cc1ccc(O)cc1)NC(=O)[C@H](CC(=O)O)NC(=O)[C@H](CO)NC(=O)[C@@H](NC(=O)[C@H](Cc1ccccc1)NC(=O)[C@@H](N)[C@@H](C)O)[C@@H](C)CC)C(=O)N[C@@H](C)C(=O)N[C@@H](CCSC)C(=O)N[C@@H](CC(=O)O)C(=O)N[C@@H](CCCCN)C(=O)N[C@H](C(=O)N[C@@H](Cc1c[nH]cn1)C(=O)N[C@@H](CCC(N)=O)C(=O)N[C@@H](CCC(N)=O)C(=O)N[C@@H](CC(=O)O)C(=O)N[C@@H](Cc1ccccc1)C(=O)N[C@H](C(=O)N[C@@H](CC(N)=O)C(=O)N[C@@H](CCCCNC(=O)CCCCCCCCCCCCCCC(=O)O)C(=O)N[C@@H](CC(C)C)C(=O)N[C@@H](CC(C)C)C(=O)N[C@@H](C)C(=O)N[C@@H](CCC(N)=O)C(=O)N[C@@H](CCCCN)C(N)=O)C(C)C)[C@@H](C)CC
B6: AT186 [hGIP(5-30)NH2[L26K]-C16diacid/26] (peptide)
peptide: TFISDYSIAMDKIHQQDFVNWK(C16 diacid)LAQK-NH2
modifications: N-terminus assumed
SMILES: CC[C@H](C)[C@H](NC(=O)[C@H](CO)NC(=O)[C@H](Cc1ccc(O)cc1)NC(=O)[C@H](CC(=O)O)NC(=O)[C@H](CO)NC(=O)[C@@H](NC(=O)[C@H](Cc1ccccc1)NC(=O)[C@@H](N)[C@@H](C)O)[C@@H](C)CC)C(=O)N[C@@H](C)C(=O)N[C@@H](CCSC)C(=O)N[C@@H](CC(=O)O)C(=O)N[C@@H](CCCCN)C(=O)N[C@H](C(=O)N[C@@H](Cc1c[nH]cn1)C(=O)N[C@@H](CCC(N)=O)C(=O)N[C@@H](CCC(N)=O)C(=O)N[C@@H](CC(=O)O)C(=O)N[C@@H](Cc1ccccc1)C(=O)N[C@H](C(=O)N[C@@H](CC(N)=O)C(=O)N[C@@H](Cc1c[nH]c2ccccc12)C(=O)N[C@@H](CCCCNC(=O)CCCCCCCCCCCCCCC(=O)O)C(=O)N[C@@H](CC(C)C)C(=O)N[C@@H](C)C(=O)N[C@@H](CCC(N)=O)C(=O)N[C@@H](CCCCN)C(N)=O)C(C)C)[C@@H](C)CC
B7: AT187 [hGIP(5-30)NH2[L27K]-C16diacid/27] (peptide)
peptide: TFISDYSIAMDKIHQQDFVNWLK(C16 diacid)AQK-NH2
modifications: N-terminus assumed
SMILES: CC[C@H](C)[C@H](NC(=O)[C@H](CO)NC(=O)[C@H](Cc1ccc(O)cc1)NC(=O)[C@H](CC(=O)O)NC(=O)[C@H](CO)NC(=O)[C@@H](NC(=O)[C@H](Cc1ccccc1)NC(=O)[C@@H](N)[C@@H](C)O)[C@@H](C)CC)C(=O)N[C@@H](C)C(=O)N[C@@H](CCSC)C(=O)N[C@@H](CC(=O)O)C(=O)N[C@@H](CCCCN)C(=O)N[C@H](C(=O)N[C@@H](Cc1c[nH]cn1)C(=O)N[C@@H](CCC(N)=O)C(=O)N[C@@H](CCC(N)=O)C(=O)N[C@@H](CC(=O)O)C(=O)N[C@@H](Cc1ccccc1)C(=O)N[C@H](C(=O)N[C@@H](CC(N)=O)C(=O)N[C@@H](Cc1c[nH]c2ccccc12)C(=O)N[C@@H](CC(C)C)C(=O)N[C@@H](CCCCNC(=O)CCCCCCCCCCCCCCC(=O)O)C(=O)N[C@@H](C)C(=O)N[C@@H](CCC(N)=O)C(=O)N[C@@H](CCCCN)C(N)=O)C(C)C)[C@@H](C)CC

Experiments:
human GIP receptor [1] = target: T1, human GIP receptor (human, UniProt P48546 22-466); assay: 125I-hGIP(1-42) competition binding, COS-7 cells expressing human GIPR, without HSA;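 further: nonspecific binding defined as radioligand bound to cells lacking the transfected receptor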
T1 construct: whole, on cells; Transiently transfected COS-7 cells expressing the human GIP receptor; also called hGIPR
T1 sequence (looked up): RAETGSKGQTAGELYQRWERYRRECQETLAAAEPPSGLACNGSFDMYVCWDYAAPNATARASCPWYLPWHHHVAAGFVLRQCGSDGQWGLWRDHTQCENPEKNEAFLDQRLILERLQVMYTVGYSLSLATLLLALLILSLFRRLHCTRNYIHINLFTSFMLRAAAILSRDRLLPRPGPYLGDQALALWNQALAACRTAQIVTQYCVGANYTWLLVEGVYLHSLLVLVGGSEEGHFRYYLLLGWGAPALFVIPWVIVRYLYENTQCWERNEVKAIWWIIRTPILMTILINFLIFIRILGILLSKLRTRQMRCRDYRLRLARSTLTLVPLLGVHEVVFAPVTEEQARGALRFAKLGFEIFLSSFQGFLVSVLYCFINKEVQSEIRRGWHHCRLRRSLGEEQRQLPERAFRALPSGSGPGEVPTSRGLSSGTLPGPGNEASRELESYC
Protocol: (§1) After incubation, the cells were washed twice in ice-cold binding buffer (+/−2% HSA) and lysed using 200 mM NaOH with 1% SDS for 30 min. Nonspecific binding was determined as the binding of radioactive ligand to untransfected cells.

human GIP receptor [2] = target: T1, human GIP receptor; assay: 125I-hGIP(1-42) competition binding, COS-7 cells expressing human GIPR, with 2% HSA;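 further: nonspecific signal taken as radioligand bound to untransfected cells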
Protocol: as §1

human GIP receptor [3] = target: T1, human GIP receptor; assay: ratio of Ki with 2% HSA to Ki without HSA, 125I-hGIP competition binding on hGIPR COS-7 cells;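 further: nonspecific binding was defined as radioligand signal on cells lacking the receptor transfection, with cell lysates measured after washes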
Protocol: as §1

human GIP receptor [4] = target: T1, human GIP receptor; assay: cell-based or functional assay

Row | Binder | Ki (human GIP receptor [1]) [µM] | Ki (human GIP receptor [2]) [µM] | Fold (Ki + HSA / Ki - HSA) (human GIP receptor [3]) [fold] | cAMP accumulation Fold (fold change from GIP(5-30)NH2) (human GIP receptor [4]) [fold] | cAMP accumulation IC50 (human GIP receptor [4]) [µM] | cAMP accumulation logIC50 (human GIP receptor [4])
1 | B1 | 0.0333 | 0.12 | 3.6 | 0.5 | 0.0126 | -7.9 log(M)
2 | B2 | 0.841 | 1.19 | 1.4 | 21.9 | 0.603 | -6.22 log(M)
3 | B3 | 5.35 | 23.3 | 4.4 | 55 | 1.51 | -5.82 log(M)
4 | B4 | 0.224 | 0.871 | 3.9 | 3.9 | 0.107 | -6.97 log(M)
5 | B5 | 0.0671 | 0.337 | 5 | 2.4 | 0.0661 | -7.18 log(M)
6 | B6 | 0.105 | 0.83 | 7.9 | 2.6 | 0.0708 | -7.15 log(M)
7 | B7 | 182 | 3300 | 18.2 | 67.6 | 1.86 | -5.73 log(M)
